The values below come from US20090166224A1.

Assay [1] has as its target Pregnancy zone protein in fucosidase-treated serum (human) (UniProt P20742). Description: fucosidase-treated serum on M-LAC column, displacer fraction, extracted ion chromatogram of peptide … (so in the source).
For assay [2] the target is unchanged. Description: fucosidase-treated serum on M-LAC column, displacer fraction, LC-MS/MS; smaller rank = more abundant.

Sequence of Pregnancy zone protein in fucosidase-treated serum (human) (P20742 26-1482 limits assumed): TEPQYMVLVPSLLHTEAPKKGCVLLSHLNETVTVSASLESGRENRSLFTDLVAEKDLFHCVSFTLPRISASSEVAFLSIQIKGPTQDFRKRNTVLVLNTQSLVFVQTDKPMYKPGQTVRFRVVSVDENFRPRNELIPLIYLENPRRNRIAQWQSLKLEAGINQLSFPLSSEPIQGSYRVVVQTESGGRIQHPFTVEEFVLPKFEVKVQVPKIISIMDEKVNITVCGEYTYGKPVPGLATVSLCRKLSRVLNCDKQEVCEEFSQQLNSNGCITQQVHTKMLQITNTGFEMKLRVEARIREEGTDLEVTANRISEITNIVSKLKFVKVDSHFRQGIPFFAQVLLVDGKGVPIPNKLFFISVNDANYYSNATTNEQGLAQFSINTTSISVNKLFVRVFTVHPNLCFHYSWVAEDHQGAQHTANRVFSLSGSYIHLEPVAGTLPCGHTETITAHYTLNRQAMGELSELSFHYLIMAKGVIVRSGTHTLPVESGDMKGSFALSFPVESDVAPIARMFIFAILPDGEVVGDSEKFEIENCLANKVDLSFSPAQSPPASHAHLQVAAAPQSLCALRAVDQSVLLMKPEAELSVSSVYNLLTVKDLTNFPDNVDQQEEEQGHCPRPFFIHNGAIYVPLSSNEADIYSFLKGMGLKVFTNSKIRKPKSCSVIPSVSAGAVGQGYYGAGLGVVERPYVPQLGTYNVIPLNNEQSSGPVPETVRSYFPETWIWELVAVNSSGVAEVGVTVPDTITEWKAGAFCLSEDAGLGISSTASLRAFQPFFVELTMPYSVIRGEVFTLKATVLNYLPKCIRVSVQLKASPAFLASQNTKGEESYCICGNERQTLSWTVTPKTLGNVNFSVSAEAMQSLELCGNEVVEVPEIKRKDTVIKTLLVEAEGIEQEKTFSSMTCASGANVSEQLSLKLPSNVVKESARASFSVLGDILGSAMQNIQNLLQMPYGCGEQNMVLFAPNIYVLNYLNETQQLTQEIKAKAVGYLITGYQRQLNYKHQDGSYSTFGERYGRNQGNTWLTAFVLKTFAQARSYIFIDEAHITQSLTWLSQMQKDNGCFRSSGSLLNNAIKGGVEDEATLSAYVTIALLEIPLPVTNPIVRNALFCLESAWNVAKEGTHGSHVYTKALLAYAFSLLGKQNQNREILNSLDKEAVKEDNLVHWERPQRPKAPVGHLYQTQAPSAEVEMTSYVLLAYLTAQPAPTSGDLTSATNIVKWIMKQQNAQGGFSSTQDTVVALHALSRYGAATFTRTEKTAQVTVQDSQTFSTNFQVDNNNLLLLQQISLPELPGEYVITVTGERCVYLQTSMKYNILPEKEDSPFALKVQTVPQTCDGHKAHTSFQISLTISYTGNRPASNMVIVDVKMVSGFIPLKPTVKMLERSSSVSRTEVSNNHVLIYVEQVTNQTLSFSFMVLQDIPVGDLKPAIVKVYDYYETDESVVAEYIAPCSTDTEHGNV

B1: Jacalin lectin, agarose-bound (protein)
chain 1: GKAFDDGAFTGIREINLSYNKETAIGDFQVVYDLNGSPYVGQNHKSFITGFTPVKISLDFPSEYIMEVSGYTGNVSGYVVVRSLTFKTNKKTYGPYGVTSGTPFNLPIENGLIVGFKGSIGYWLDYFSMYLSL
chain 2: NEQSGKSQTVIVGSWGAKVS
modifications: immobilized on agarose
B1 showed a peptide peak area in displacer fraction in assay [1] of 0 counts. In assay [2], this molecule had an SEQUEST rank in displacer fraction of 6.
